Data set [1] has as its target T1, Oct2β (in vitro translated) (Ictalurus punctatus (channel catfish), UniProt O13007 1-480).
T1 sequence: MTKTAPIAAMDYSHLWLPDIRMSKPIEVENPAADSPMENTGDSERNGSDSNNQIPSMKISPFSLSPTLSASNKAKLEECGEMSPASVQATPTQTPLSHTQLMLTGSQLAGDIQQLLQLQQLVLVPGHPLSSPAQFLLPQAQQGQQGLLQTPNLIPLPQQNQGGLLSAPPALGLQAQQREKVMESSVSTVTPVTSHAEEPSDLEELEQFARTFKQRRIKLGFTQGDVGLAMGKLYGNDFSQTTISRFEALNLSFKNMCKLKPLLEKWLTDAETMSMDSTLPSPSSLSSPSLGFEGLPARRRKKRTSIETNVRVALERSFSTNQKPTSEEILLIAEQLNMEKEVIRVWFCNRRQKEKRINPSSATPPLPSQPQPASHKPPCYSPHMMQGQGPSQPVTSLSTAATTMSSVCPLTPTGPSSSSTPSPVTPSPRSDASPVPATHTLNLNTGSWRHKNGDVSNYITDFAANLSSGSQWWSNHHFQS
Kind of data set: EMSA; 1x Promega binding buffer (from 5x, composition not given), 30 min preincubation at room temperature then 30 min with probe; 5% native PAGE at 4°C; 100x competitor; pH and salt not given; extract EMSA as in Ross et al. Particulars: protein: ivt; label: 32P-dATP Klenow fill-in; 5' overhang 4 nt on both strands as annealed; labeled by Klenow fill-in. (In general: Mobility shift assays separate free from complexed probe on a gel.)

Data set [2] has as its target T2, Oct1 (in vitro translated) (Ictalurus punctatus (channel catfish; …, UniProt O57602 1-623).
T2 sequence: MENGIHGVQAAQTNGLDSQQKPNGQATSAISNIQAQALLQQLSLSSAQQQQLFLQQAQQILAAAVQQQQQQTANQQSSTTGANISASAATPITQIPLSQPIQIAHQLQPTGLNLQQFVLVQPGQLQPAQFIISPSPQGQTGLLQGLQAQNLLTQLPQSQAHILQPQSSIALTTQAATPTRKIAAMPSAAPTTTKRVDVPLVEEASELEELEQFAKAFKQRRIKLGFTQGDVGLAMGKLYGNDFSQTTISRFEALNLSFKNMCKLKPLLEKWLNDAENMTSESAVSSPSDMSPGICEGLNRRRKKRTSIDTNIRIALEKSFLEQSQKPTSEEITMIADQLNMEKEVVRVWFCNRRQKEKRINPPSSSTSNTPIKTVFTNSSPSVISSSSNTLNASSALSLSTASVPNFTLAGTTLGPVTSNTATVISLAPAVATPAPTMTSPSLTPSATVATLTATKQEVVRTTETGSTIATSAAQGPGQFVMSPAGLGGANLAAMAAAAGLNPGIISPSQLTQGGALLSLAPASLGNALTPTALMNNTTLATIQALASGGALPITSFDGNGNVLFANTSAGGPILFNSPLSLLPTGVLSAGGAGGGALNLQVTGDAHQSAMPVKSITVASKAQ
Kind of data set: EMSA; cold self competitor inhibits; anti-Oct1 abolishes shift; 1x Promega binding buffer (from 5x, composition not given), 30 min preincubation at room temperature then 30 min with probe; 5% native PAGE at 4°C; 100x competitor; pH and salt not given; extract EMSA as in Ross et al. Particulars: protein: ivt; label: 32P-dATP Klenow fill-in; 5' overhang 4 nt on both strands as annealed; labeled by Klenow fill-in.

B1: Eμ3' core enhancer first octamer (G-2110/G-2111) (dsDNA)
DNA 1: GCAAAACACTGCATGTAAATAGTCTAAT
DNA 2: CATTATTAGACTATTTACATGCAGTGTT
As for B1, the binding result in data set [1] and in data set [2] was “binds” each time.
